The supplement of paper PMC10567573

B1: TRIM63 (parent)
chain: QRITQEQEKKLSFIEALIQQYQEQ

Variants of: B1
Experiment: protein stability index of a GFP-peptide fusion (GPS, HEK-293T) (PSI 1-6); higher = more stable
Conditions: c terminus: a fixed tail appended
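Note: lentivirally expressed fusions sorted by FACS into six bins by GFP to DsRed ratio, PSI derived from sequencing read proportions per bin multiplied by bin number.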

Row | Variant | protein stability index
1 | QRITQEQEKWLSFIEALIQQYQEQ | 2.05
2 | QRITQEQEKYLSFIEALIQQYQEQ | 1.73
3 | QRITQEQEKKASFIEALIQQYQEQ | 3.13
4 | QRITQEQEKKCSFIEALIQQYQEQ | 2.35
5 | QRITQEQEKKDSFIEALIQQYQEQ | 3.94
6 | QRITQEQEKKESFIEALIQQYQEQ | 3.98
7 | QRITQEQEKKFSFIEALIQQYQEQ | 1.87
8 | QRITQEQEKKGSFIEALIQQYQEQ | 2.53
9 | QRITQEQEKKHSFIEALIQQYQEQ | 2.8
10 | QRITQEQEKKISFIEALIQQYQEQ | 2.64
11 | QRITQEQEKKKSFIEALIQQYQEQ | 1.56
12 | QRITQEQEKKMSFIEALIQQYQEQ | 1.82
13 | QRITQEQEKKNSFIEALIQQYQEQ | 2.79
14 | QRITQEQEKKPSFIEALIQQYQEQ | 2.78
15 | QRITQEQEKKQSFIEALIQQYQEQ | 3.08
16 | QRITQEQEKKRSFIEALIQQYQEQ | 2.24
17 | QRITQEQEKKSSFIEALIQQYQEQ | 2.63
18 | QRITQEQEKKTSFIEALIQQYQEQ | 2.54
19 | QRITQEQEKKVSFIEALIQQYQEQ | 1.95
20 | QRITQEQEKKWSFIEALIQQYQEQ | 2.26
21 | QRITQEQEKKYSFIEALIQQYQEQ | 2.79
22 | QRITQEQEKKLAFIEALIQQYQEQ | 3.19
23 | QRITQEQEKKLCFIEALIQQYQEQ | 2.25
24 | QRITQEQEKKLDFIEALIQQYQEQ | 2.86

Row | Variant | protein stability index
25 | QRITQEQEKKLFFIEALIQQYQEQ | 2.56
26 | QRITQEQEKKLGFIEALIQQYQEQ | 2.71
27 | QRITQEQEKKLHFIEALIQQYQEQ | 2.9
28 | QRITQEQEKKLIFIEALIQQYQEQ | 2.12
29 | QRITQEQEKKLKFIEALIQQYQEQ | 1.91
30 | QRITQEQEKKLLFIEALIQQYQEQ | 2.39
31 | QRITQEQEKKLMFIEALIQQYQEQ | 1.86
32 | QRITQEQEKKLNFIEALIQQYQEQ | 2.74
33 | QRITQEQEKKLPFIEALIQQYQEQ | 3.91
34 | QRITQEQEKKLQFIEALIQQYQEQ | 2.62
35 | QRITQEQEKKLTFIEALIQQYQEQ | 3.23
36 | QRITQEQEKKLVFIEALIQQYQEQ | 1.81
37 | QRITQEQEKKLWFIEALIQQYQEQ | 1.57
38 | QRITQEQEKKLYFIEALIQQYQEQ | 1.85
39 | QRITQEQEKKLSAIEALIQQYQEQ | 4.47
40 | QRITQEQEKKLSCIEALIQQYQEQ | 3.56
41 | QRITQEQEKKLSDIEALIQQYQEQ | 4.83
42 | QRITQEQEKKLSEIEALIQQYQEQ | 4.78
43 | QRITQEQEKKLSGIEALIQQYQEQ | 4.6
44 | QRITQEQEKKLSHIEALIQQYQEQ | 4.14
45 | QRITQEQEKKLSIIEALIQQYQEQ | 2.62
46 | QRITQEQEKKLSKIEALIQQYQEQ | 3.59
47 | QRITQEQEKKLSLIEALIQQYQEQ | 2.72
48 | QRITQEQEKKLSMIEALIQQYQEQ | 3.25

Row | Variant | protein stability index
49 | QRITQEQEKKLSNIEALIQQYQEQ | 4.66
50 | QRITQEQEKKLSPIEALIQQYQEQ | 4.68
51 | QRITQEQEKKLSQIEALIQQYQEQ | 4.33
52 | QRITQEQEKKLSRIEALIQQYQEQ | 3.91
53 | QRITQEQEKKLSSIEALIQQYQEQ | 4.52
54 | QRITQEQEKKLSTIEALIQQYQEQ | 4.78
55 | QRITQEQEKKLSVIEALIQQYQEQ | 3.93
56 | QRITQEQEKKLSWIEALIQQYQEQ | 1.68
57 | QRITQEQEKKLSYIEALIQQYQEQ | 2.62
58 | QRITQEQEKKLSFAEALIQQYQEQ | 2.41
59 | QRITQEQEKKLSFCEALIQQYQEQ | 2.02
60 | QRITQEQEKKLSFDEALIQQYQEQ | 4.69
61 | QRITQEQEKKLSFEEALIQQYQEQ | 2.77
62 | QRITQEQEKKLSFFEALIQQYQEQ | 3
63 | QRITQEQEKKLSFGEALIQQYQEQ | 4.31
64 | QRITQEQEKKLSFHEALIQQYQEQ | 3.2
65 | QRITQEQEKKLSFLEALIQQYQEQ | 2.23
66 | QRITQEQEKKLSFMEALIQQYQEQ | 2.79
67 | QRITQEQEKKLSFNEALIQQYQEQ | 4.7
68 | QRITQEQEKKLSFPEALIQQYQEQ | 4.55
69 | QRITQEQEKKLSFQEALIQQYQEQ | 3.22
70 | QRITQEQEKKLSFREALIQQYQEQ | 3.15
71 | QRITQEQEKKLSFSEALIQQYQEQ | 3.48
72 | QRITQEQEKKLSFTEALIQQYQEQ | 2.35

Row | Variant | protein stability index
73 | QRITQEQEKKLSFYEALIQQYQEQ | 2.87
74 | QRITQEQEKKLSFIAALIQQYQEQ | 2.82
75 | QRITQEQEKKLSFICALIQQYQEQ | 1.44
76 | QRITQEQEKKLSFIDALIQQYQEQ | 2.19
77 | QRITQEQEKKLSFIFALIQQYQEQ | 1.92
78 | QRITQEQEKKLSFIGALIQQYQEQ | 2.44
79 | QRITQEQEKKLSFIHALIQQYQEQ | 2.28
80 | QRITQEQEKKLSFIIALIQQYQEQ | 1.6
81 | QRITQEQEKKLSFIKALIQQYQEQ | 2.11
82 | QRITQEQEKKLSFILALIQQYQEQ | 2.56
83 | QRITQEQEKKLSFINALIQQYQEQ | 2.04
84 | QRITQEQEKKLSFIPALIQQYQEQ | 3.48
85 | QRITQEQEKKLSFIQALIQQYQEQ | 2.23
86 | QRITQEQEKKLSFIRALIQQYQEQ | 2.16
87 | QRITQEQEKKLSFISALIQQYQEQ | 2.12
88 | QRITQEQEKKLSFITALIQQYQEQ | 2.32
89 | QRITQEQEKKLSFIWALIQQYQEQ | 2.5
90 | QRITQEQEKKLSFIYALIQQYQEQ | 2.34
91 | QRITQEQEKKLSFIECLIQQYQEQ | 2.46
92 | QRITQEQEKKLSFIEDLIQQYQEQ | 3.16
93 | QRITQEQEKKLSFIEELIQQYQEQ | 2.95
94 | QRITQEQEKKLSFIEFLIQQYQEQ | 2.57
